Test results published in publication doi:10.1101/2025.01.11.632520, “A De Novo Design Strategy to Convert FAcD from Dimer to Active Monomer” (bioRxiv, 2025).

Biological target: the molecule itself
Test: native MS; proteins buffer-exchanged into 0.2 M ammonium acetate (pH 7); Q-Exactive Plus Orbitrap, collision voltage 20 V; room temperature; self-association (dimer vs monomer)

B1: Fluoroacetate dehalogenase (FAcD), wild-type (enzyme, UniProt Q6NAM1 1-302, looked up)
chain: MPDLADLFPGFGSEWINTSSGRIFARVGGDGPPLLLLHGFPQTHVMWHRVAPKLAERFKVIVADLPGYGWSDMPESDEQHTPYTKRAMAKQLIEAMEQLGHVHFALAGHDRGARVSYRLALDSPGRLSKLAVLDILPTYEYWQRMNRAYALKIYHWSFLAQPAPLPENLLGGDPDFYVKAKLASWTRAGDLSAFDPRAVEHYRIAFADPMRRHVMCEDYRAGAYADFEHDKIDVEAGNKIPVPMLALWGASGIAQSAATPLDVWRKWASDVQGAPIESGHFLPEEAPDQTAEALVRFFSAAP
notes: Fluoroacetate dehalogenase (FAcD), gene Rpa1163, residues 1-302; His6-SUMO tag cleaved off by ULP1; Homodimer by native MS; also called WT; WT-Di; source: E. coli BL21(DE3), purified (nickel column, SEC); not shown: His6, N-terminal, cleaved; SUMO, N-terminal, cleaved
  stoichiometry N: 2
